One substance from patent US20170355992A1 can be followed below.

Assay [1] has as its target prothrombin with an Alexa532 on the 271 cleavage site that was attached by mutating the arginine to a cysteine (UniProt P00734). Put plainly: FRET, Alexa488-FVa donor and Alexa532 prothrombin acceptor, buffer control.
Assay [2] shares this target. Put plainly: FRET, Alexa488-FVa donor and Alexa532 prothrombin acceptor, with 2.5 µM RNA aptamer T18.3.

In the case of “FVa with Alexa488 on the 539 residue (from UniProt P12259 29-2224)”, the emission percentage (FRET) came out at 16.3% in assay [1] and 17.5% in assay [2].
